Assay results published in patent US7022815 (GENERAL HOSPITAL, dated 2006).
“And” between values parts separate entries of the source, which are not always exact repeats. Equal entries are not always repeated. Non-standard residues stand in square brackets, D forms with d. No end group written: not given here. Nle = CCCC[C@H](N)C(=O)O

T1: rat PTH-1 receptor (rat, UniProt P25961 27-591)
T1 sequence (looked up): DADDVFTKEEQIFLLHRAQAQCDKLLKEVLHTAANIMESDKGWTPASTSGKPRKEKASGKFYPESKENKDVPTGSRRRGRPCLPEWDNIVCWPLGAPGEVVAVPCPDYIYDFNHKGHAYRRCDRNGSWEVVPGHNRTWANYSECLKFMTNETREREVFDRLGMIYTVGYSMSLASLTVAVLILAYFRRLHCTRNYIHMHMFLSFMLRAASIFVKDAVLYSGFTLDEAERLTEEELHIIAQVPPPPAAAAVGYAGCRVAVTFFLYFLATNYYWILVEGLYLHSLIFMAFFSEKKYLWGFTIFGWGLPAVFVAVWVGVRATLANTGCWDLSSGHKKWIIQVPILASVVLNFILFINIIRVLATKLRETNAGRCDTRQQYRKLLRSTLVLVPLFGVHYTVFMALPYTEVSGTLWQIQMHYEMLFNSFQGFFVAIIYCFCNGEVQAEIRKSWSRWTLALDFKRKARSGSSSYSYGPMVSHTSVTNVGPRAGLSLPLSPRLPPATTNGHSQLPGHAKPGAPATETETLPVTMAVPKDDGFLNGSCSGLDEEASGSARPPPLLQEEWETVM

T2: human PTH-1 receptor (human, UniProt Q03431 27-593)
T2 sequence (looked up): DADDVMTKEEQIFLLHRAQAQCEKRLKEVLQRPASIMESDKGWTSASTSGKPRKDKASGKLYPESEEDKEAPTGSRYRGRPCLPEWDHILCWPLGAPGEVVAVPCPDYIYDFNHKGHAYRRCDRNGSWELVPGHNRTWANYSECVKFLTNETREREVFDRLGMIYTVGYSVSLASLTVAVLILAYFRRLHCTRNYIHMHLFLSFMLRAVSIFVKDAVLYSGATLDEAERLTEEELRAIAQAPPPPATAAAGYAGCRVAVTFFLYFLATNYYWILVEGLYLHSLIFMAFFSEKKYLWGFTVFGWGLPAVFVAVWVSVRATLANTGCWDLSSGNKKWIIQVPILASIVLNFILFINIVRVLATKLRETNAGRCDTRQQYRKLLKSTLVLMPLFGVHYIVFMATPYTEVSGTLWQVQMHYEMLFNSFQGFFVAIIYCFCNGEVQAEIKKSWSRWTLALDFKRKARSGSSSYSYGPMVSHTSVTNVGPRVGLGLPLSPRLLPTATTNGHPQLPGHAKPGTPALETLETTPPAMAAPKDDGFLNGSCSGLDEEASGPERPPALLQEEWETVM


How the values were obtained:
[1] = biological target: truncated human PTH-1 receptor hDelNt (human), Q03431; test: cell-based or functional assay
rat PTH-1 receptor = biological target: T1, rat PTH-1 receptor; test: cell-based or functional assay
human PTH-1 receptor [2] = biological target: T2, human PTH-1 receptor; test: cell-based or functional assay
human PTH-1 receptor [3] = biological target: T2, human PTH-1 receptor; test: cell-based or functional assay; remark: listed apart in the source
human PTH-2 receptor = human PTH-2 receptor (human, UniProt P49190 25-550); test: cell-based or functional assay
human PTH-2 receptor, sequence (P49190 25-550): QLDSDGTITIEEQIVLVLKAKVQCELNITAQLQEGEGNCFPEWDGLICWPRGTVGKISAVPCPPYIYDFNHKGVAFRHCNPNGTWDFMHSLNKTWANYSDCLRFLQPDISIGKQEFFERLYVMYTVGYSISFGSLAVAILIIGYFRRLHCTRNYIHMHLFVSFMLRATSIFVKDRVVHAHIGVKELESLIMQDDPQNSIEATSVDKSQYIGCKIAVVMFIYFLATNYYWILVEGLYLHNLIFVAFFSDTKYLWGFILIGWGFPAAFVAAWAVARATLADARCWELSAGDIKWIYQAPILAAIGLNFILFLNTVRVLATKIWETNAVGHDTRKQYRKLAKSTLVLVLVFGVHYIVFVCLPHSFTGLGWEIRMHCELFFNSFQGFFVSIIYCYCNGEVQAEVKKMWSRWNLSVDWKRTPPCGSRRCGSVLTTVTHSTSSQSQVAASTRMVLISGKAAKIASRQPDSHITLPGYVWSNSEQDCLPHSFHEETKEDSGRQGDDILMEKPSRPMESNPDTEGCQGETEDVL

human PTH-1 receptor [4] = biological target: T2, human PTH-1 receptor; test: cell-based or functional assay; remark: listed apart in the source
human PTH-1 receptor [5] = biological target: T2, human PTH-1 receptor; test: cell-based or functional assay; remark: listed apart in the source
human PTH-1 receptor [6] = biological target: T2, human PTH-1 receptor; test: competition binding on HKRK-B7 cells, 125I-rPTH(1-34) tracer displaced by varying doses of unlabeled peptide
Procedure: Binding reactions were performed with stably transfected HKRK-B7 cells in 24-well plates. […] Incubations (final volume=300 µL) were at 15° C. for 4 h. Cells were then placed on ice, the binding medium was removed, and the monolayer was rinsed three times with 0.5 mL of cold binding buffer. The cells were subsequently lysed with 0.5 mL 5N NaOH and counted for radioactivity. The non-specific binding for each experiment was determined by competition with a 1 µM dose of unlabeled rPTH(1–34). The maximum specific binding (B_0) was the total radioactivity bound in the absence of unlabeled PTH ligand, corrected for nonspecific binding. Binding $IC50$ values were determined using nonlinear regression (see below).
To determine if these substitutions could enhance the activity of PTH(1–34), the substitutions of Ser3→Ala, Asn10→Ala, Leu11→Arg and Gly12→Ala were introduced into the analog [Ala1,Tyr34]hPTH(1–34) to yield peptide #7.

Row | Binder | cAMP Emax, COS-7 cells with hDeINt (picomole/well) [1] | cAMP potency against native PTH(1-14) [1] [fold] | cAMP EC50, ROS 17/2.8 cells (rat PTH-1 receptor) | cAMP Emax, ROS 17/2.8 cells (rat PTH-1 receptor) [picomole/well] | cAMP EC50, SAOS-2 cells (human PTH-1 receptor [2]) | cAMP Emax, SAOS-2 cells (human PTH-1 receptor [2]) [picomole/well] | cAMP EC50, HKRK-B7 cells (human PTH-1 receptor [3]) | cAMP Emax, HKRK-B7 cells (human PTH-1 receptor [3]) [picomole/well] | cAMP EC50, LLC-P2R-22 cells (human PTH-2 receptor) | cAMP Emax, LLC-P2R-22 cells (human PTH-2 receptor) [picomole/well] | cAMP EC50, COS-7 cells with WT hPTH-1 receptor (human PTH-1 receptor [4]) | cAMP Emax, COS-7 cells with WT hPTH-1 receptor (human PTH-1 receptor [4]) [picomole/well] | cAMP potency against controls, HKRK-B7 cells (human PTH-1 receptor [5]) [fold] | fold improvement in binding affinity, as compared to rPTH(1-34) (human PTH-1 receptor [6]) [fold] | cAMP potency against native PTH(1-14) (human PTH-1 receptor [5]) [fold]
1 | AVAEIQLMHARAKH-NH2 [[A3, A10, R11, A12]rPTH(1-14)] | 250 | 100 | -5.2 Log M and 7.3 µM | 395 | 12.7 µM and -4.9 Log M | 331 | -6.1 Log M and 0.83 µM | 264 | -3.9 Log M and 126 µM | 292 | -6 Log M and 4.66 µM | 243 |  |  | 
2 | AVSEIQL[Nle]HNLGKHLASVER[Nle]QWLRKKLQDVHNY-NH2 [[Nle^8,21,Tyr^34]-rPTH(1-34)NH2] | 243 |  | -9.5 Log M and 0.0003 µM | 364 | -9.75 Log M and 0.00018 µM | 272 | -8.6 Log M and 0.0033 µM | 293 | -8.4 Log M and 0.0044 µM | 744 | -9.2 Log M and 0.0007 µM | 226 |  |  | 
3 | SVSEIQLMHNLGKHLNSMERVEWLRKKLQDVHNY-NH2 [[Tyr^34]human (h)PTH(1-34)NH2] | 238 |  | -9.6 Log M and 0.0003 µM | 340 |  | 307 | -8.4 Log M | 270 |  |  | -9.3 Log M | 226 |  |  | 
4 | AVSEIQLMHNLGKH-NH2 [native rPTH(1-14)] | 222 |  | -3.4 Log M and 449 µM | 376 |  |  | -3.9 Log M and 133 µM | 299 |  |  | -3.8 Log M and 152 µM | 221 |  |  | 
5 | AVAEIQLMHAR-NH2 [[A3, A10, R11]rPTH(1-11)] | 243 |  | 133 µM and -3.9 Log M | 377 | 94.7 µM and -4.12 Log M | 235 | -4.8 Log M and 17.1 µM | 248 |  |  | -4.6 Log M and 29.1 µM | 238 |  |  | 
6 | AVAEIQLMHARAKHLNSMERVEWLRKKLQDVHNY-NH2 (also called peptide #7; #7) [[A1, A3, A10, R11, A12, Y34]hPTH(1-34)] | 251 |  | -9.6 Log M and 0.0002 µM | 395 | 0.00011 µM and -9.95 Log M | 272 | -8.8 Log M and 0.0016 µM | 244 | -7.7 Log M and 0.0192 µM | 677 | -3.5 Log M and 313 µM | 222 | ~2 | ~2 | 
7 | AVAEIQLMHARAKW-NH2 [[A3, A10, R11, A12, W14]rPTH(1-14)] |  |  | 3.4 µM | 382 |  |  | -6.3 Log M and 0.6 µM | 262 |  |  |  |  |  |  | 220
8 | AVAEIQLMHQRAKH-NH2 [[A3, Q10, R11, A12]rPTH(1-14)] |  |  |  |  |  |  | -6.1 Log M and 0.8 µM | 235 |  |  |  |  |  |  | 
9 | AVAEIQLMHARAK-NH2 [[A3, A10, R11, A12]rPTH(1-13)] |  |  |  |  |  |  | -5.6 Log M and 2.4 µM | 239 | -4 Log M and 106 µM | 501 |  |  |  |  | 
10 | AVAEIQLMHARA-NH2 [[A3, A10, R11, A12]rPTH(1-12)] |  |  |  |  |  |  | -5 Log M and 10.2 µM | 238 | -3.5 Log M and 342 µM | 501 |  |  |  |  | 
